In patent US11660961B2, “Host cells and methods for producing isopentenol from mevalonate” (The Regents of the University of California, priority 2015, dated 2023):
Positions count from the first letter of the chain named. In names and notes the source's numbering stands. Several values for one entry are separate records, joined by “and”; a condition that tells them apart may be missing. Identical values can stand only once. Like-named read-outs stand apart in the source and are kept apart here.

B1: NudF: NudF of B. subtilis, identified as a IPP hydrolase (protein, UniProt P54570 1-185, looked up)
ADP-ribose pyrophosphatase: MKSLEEKTIAKEQIFSGKVIDLYVEDVELPNGKASKREIVKHPGAVAVLAVTDEGKIIMVKQFRKPLERTIVEIPAGKLEKGEEPEYTALRELEEETGYTAKKLTKITAFYTSPGFADEIVHVFLAEELSVLEEKRELDEDEFVEVMEVTLEDALKLVESREVYDAKTAYAIQYLQLKEALQAQK
B2: aphA: E. coli-endogenous phosphatase found to hydrolyze IP to isopentenol (protein, UniProt P0AE22 26-237, looked up)
Class B acid phosphatase: SSPSPLNPGTNVARLAEQAPIHWVSVAQIENSLAGRPPMAVGFDIDDTVLFSSPGFWRGKKTFSPESEDYLKNPVFWEKMNNGWDEFSIPKEVARQLIDMHVRRGDAIFFVTGRSPTKTETVSKTLADNFHIPATNMNPVIFAGDKPGQNTKSQWLQDKNIRIFYGDSDNDITAARDVGARGIRILRASNSTYKPLPQAGAFGEEVIVNSEY
B3: PMDsc WT: wild type mevalonate diphosphate decarboxylase from Saccharomyces cerevisiae (protein, UniProt P32377 1-396, looked up)
Diphosphomevalonate …: MTVYTASVTAPVNIATLKYWGKRDTKLNLPTNSSISVTLSQDDLRTLTSAATAPEFERDTLWLNGEPHSIDNERTQNCLRDLRQLRKEMESKDASLPTLSQWKLHIVSENNFPTAAGLASSAAGFAALVSAIAKLYQLPQSTSEISRIARKGSGSACRSLFGGYVAWEMGKAEDGHDSMAVQIADSSDWPQMKACVLVVSDIKKDVSSTQGMQLTVATSELFKERIEHVVPKRFEVMRKAIVEKDFATFAKETMMDSNSFHATCLDSFPPIFYMNDTSKRIISWCHTINQFYGETIVAYTFDAGPNAVLYYLAENESKLFAFIYKLFGSVPGWDKKFTTEQLEAFNHQFESSNFTARELDLELQKDVARVILTQVGSGPQETNESLIDAKTGLPKE
B4: PMDsc K22M: PMDsc mutant, K22 mutated to neutral methionine (protein)
chain: B3 Diphosphomevalonate … with K22M
B5: PMDsc I145F: PMDsc mutant I145F (protein)
chain: B3 Diphosphomevalonate … with I145F
B6: S208E: PMDsc mutant, serine 208 mutated to glutamate (protein, UniProt P32377 1-396, looked up, variant S208E)
Diphosphomevalonate …: B3 Diphosphomevalonate … with S208E
B7: PMDsc T209D: PMDsc mutant, T209 mutated to negatively charged aspartate (protein)
chain: B3 Diphosphomevalonate … with T209D
B8: PMDsc R74H: PMDsc mutant R74H (protein)
chain: B3 Diphosphomevalonate … with R74H
B9: S155E: PMDsc mutant, serine 155 mutated to glutamate (protein, UniProt P32377 1-396, looked up, variant S155E)
Diphosphomevalonate …: B3 Diphosphomevalonate … with S155E

Legend:
[1] = In vitro hydrolysis of IPP by purified Nudix hydrolase; format: biochemical; conditions: purified enzyme with IPP; up to 16 hours
Procedure: All metabolites are analyzed by liquid chromatography mass spectrometry (LC-MS; Agilent Technologies 1200 Series HPLC system and Agilent Technologies 6210 time-of-flight mass spectrometer) on a ZIC-HILIC column (150 mm length, 2.1-mm internal diameter, and 3.5-μm particle size). Standard chemicals (IPP and IP) are purchased from Sigma-Aldrich (USA). Metabolites are eluted isocratically with a mobile phase composition of 64% (v/v) acetonitrile containing 50 mM ammonium acetate with a flow rate of 0.15 mL/min. IPP and IP from E. coli extracts or enzyme assay are quantified via […] calibration curves ranging from 781.25 nM to 200 μM.

E. coli BW25113 = test: Isopentenol production in E. coli; format: cell-based, Escherichia coli; conditions: for effect on in vivo isopentenol production: expressed in IPP-bypass pathway II in E. coli; for isopentenol productivity: pathway II, through 30 hours of batch fermentation
Procedure: E. coli BW25113 harboring two plasmids is used for isopentenol production. Seed cultures of all production strains are prepared by growing single colonies in LB medium containing 100 μg/mL ampicillin and 30 μg/mL chloramphenicol overnight at 37° C. with shaking at 200 rpm. The seed cultures are diluted in EZ-Rich defined medium (Teknova, USA) containing 10 g/L glucose (1%, w/v), 100 μg/mL ampicillin and 30 μg/mL chloramphenicol. The E. coli cell cultures are incubated in rotary shakers (200 rpm) at 37° C., and 0.5 mM IPTG is added to induce protein expression at OD600 of 0.6-0.8. To provide different levels of aeration, identical volumes of the cell culture are split into two flasks for incubation at 30° C. with shaking at either 200 rpm or 30 rpm.
For isopentenol quantification, 250 μL of cell culture is combined with 250 μL of ethyl acetate containing 1-butanol (30 mg/L) as an internal standard. This mixture of ethyl acetate and cell culture is vigorously shaken for 15 min and subsequently centrifuged at 13,000 g for 2 min to separate ethyl acetate from the aqueous phase. 100 μL of the ethyl acetate layer was diluted 5-fold, and 1 μL is analyzed by Agilent GCMS equipped with Cyclosil-B column (Agilent, USA) or Thermo GCFID equipped with DB-WAX column (Agilent, USA) for quantitation of isopentenol.

[2] = In vitro hydrolysis of IP to isopentenol (purified enzyme or cell lysates); format: biochemical; conditions: purified NudB or lysates of cells overexpressing the phosphatase
Procedure: To identify IP-hydrolyzing endogenous phosphatases, single gene knockout mutants of 36 phosphatases, of which substrates are mostly mono-phosphorylated metabolites, are retrieved from the Keio collection (Baba et al., 2006). 1 mL overnight cultures from each mutant are concentrated in 0.5 mL of 50 mM Tris-HCl (pH 8.0) buffer containing 1 mM DTT and ˜50 mg of glass beads (<100 μm, Sigma-Aldrich, USA). Cells are lysed by bead-beating for 2 min at 6.0 M/s (MP biomedicals Fast Prep, USA). After centrifugation of cell lysates at 20,000 g for 10 min, clear supernatant is used for assay reaction containing 0.5 mM isopentenyl monophosphate (IP). An equal volume of ethyl acetate is added to 100 μL of assay reaction after incubating overnight at 30° C., and isopentenol is extracted for 10 min by vigorous mixing.
Coding sequences of agp, aphA, and yqaB are amplified from BW25113 genome by PCR, and they are subsequently cloned to pBbE1a vector (Lee et al., 2011) for over-expression. Expression of these three genes are induced by addition of 0.5 mM IPTG to the cell cultures, and cell lysates of each sample are prepared with three biological replicates as described above for screening of the 36 mutants. 600 μL of assay reactions containing cell lysates, 1 mM DTT are prepared and the reaction is initiated by addition of 0.5 mM IP. […] Quantification of metabolites

[3] = substrate MVAPP, cited from earlier work
[4] = In vitro decarboxylase activity toward MVA; format: biochemical
Procedure: In vitro enzyme kinetics of decarboxylases are performed as described in previous studies (Barta et al., 2012 and Vannice et al., 2014). Briefly, enzymatic activity of decarboxylase is determined by a spectrophotometer assay quantifying ADP product formation, which is coupled to NADH oxidation by pyruvate kinase/lactate dehydrogenase. Assay mixtures are prepared in 50 mM HEPES-KOH (pH 7.5) containing 10 mM MgCl2, 400 μM phosphoenolpyruvate, 200 μM NADH, 4 mM ATP, and 25 U of pyruvate kinase/lactate dehydrogenase (Sigma, P0294). […]

[5] = In vitro enzyme kinetics of decarboxylases, ADP formation coupled to NADH oxidation; format: biochemical; conditions: for Km / kcat / % of WT (kcat/Km): substrate MVAP; for % of WT (kcat/Km): relative to PMDsc wild type
Procedure: A plasmid encoding a wild type mevalonate diphosphate decarboxylase from Saccharomyces cerevisiae (PMDsc) with N-terminal His-tag (pSKB3-PMDsc) is transformed into E. coli BL21 (DE3). A seed culture of BL21 (DE3) harboring pSKB3-PMDsc is prepared by inoculating a single colony and growing it overnight in Luria-Bertani (LB) medium containing kanamycin (50 μg/mL). The seed culture is diluted in Terrific Broth supplemented with 2% glycerol and 50 μg/mL kanamycin and incubated at 37° C. until the optical density of the culture at 600 nm (OD600) reached to 0.6-0.8. The cell culture is supplemented with isopropyl-β-D-thiogalactopyranoside (IPTG) to the final concentration of 0.5 mM and transferred to 18° C. for protein expression overnight. Cells are collected by centrifugation and re-suspended in 50 mM Tris-HCl (pH 7.5) buffer containing 300 mM NaCl and 10 mM imidazole. Cells are lysed by sonication and purified by HisPur Cobalt Resins (Thermo Scientific, USA). The purified PMDss is desalted in 10 mM Tris-HCl (pH 7.5) containing 50 mM NaCl, 0.5 mM dithiothreitol (DTT) and 20% glycerol, and flash-frozen in liquid nitrogen for storage at −80° C. All PIVD mutants, PMDsc, and NudB are purified as described above, except that NudB is desalted in 50 mM Tris-HCl (pH 8.0) buffer containing 0.1 mM EDTA, 1 mM DTT and 20% glycerol.
In vitro enzyme kinetics of decarboxylases are performed as described in previous studies (Barta et al., 2012 and Vannice et al., 2014). Briefly, enzymatic activity of decarboxylase is determined by a spectrophotometer assay quantifying ADP product formation, which is coupled to NADH oxidation by pyruvate kinase/lactate dehydrogenase. Assay mixtures are prepared in 50 mM HEPES-KOH (pH 7.5) containing 10 mM MgCl2, 400 μM phosphoenolpyruvate, 200 μM NADH, 4 mM ATP, and 25 U of pyruvate kinase/lactate dehydrogenase (Sigma, P0294). The reaction is initiated by addition of various concentrations of MVAP from 100 μM to 4,000 μM, and the reaction velocity is determined by monitoring OD at 340 nm in Spectramax 384plus microplate reader (Molecular Devices, USA).

[6] = as above; format: biochemical; conditions: in vitro assay reactions using cell lysates

Molecule | effect on in vivo isopentenol production (E. coli BW25113) | activity on MVA [4] | Km [5] | kcat [5] | % of WT (kcat/Km) [5] | other results
B1 |  |  |  |  |  | IPP hydrolysis product [1]: hydrolyze IPP to IP, but not to isopentenol
B2 | does not significantly increase the isopentenol production |  |  |  |  | hydrolysis of IP to isopentenol [2]: significantly higher and faster hydrolysis activity on IP
B3 |  | too low to determine the kinetic parameters | 990 µM | 0.14 s⁻¹ | 100% | Km ([3]; Krepkiy and Miziorko, 2004): 123 µM; kcat ([3]; literature): 5.9 s⁻¹ and 5.4 s⁻¹; isopentenol productivity (E. coli BW25113): 15.9 mg/L/h; Km toward MVAP, fold higher than reported Km toward MVAPP ([5]; MVAP vs native substrate MVAPP): ~8 fold; kcat toward MVAP, fold lower than reported kcat toward MVAPP ([5]; MVAP vs native substrate MVAPP): about 35 fold
B4 | do not significantly change the in vivo production titer |  | 2470 µM | 0.09 s⁻¹ | 25% | 
B5 | reduces isopentenol titer and productivity | do not show detectible hydrolysis activity on MVA | 1360 µM | 0.28 s⁻¹ | 147% | % of WT (kcat/Km) ([5]; listed as I145F): 147%
B6 |  |  |  |  |  | product formation from MVAP [6]: do not produce detectible amount of product
B7 | do not significantly change the in vivo production titer |  | 990 µM | 0.13 s⁻¹ | 98% | 
B8 |  | do not show detectible hydrolysis activity on MVA | 770 µM | 0.23 s⁻¹ | 220% | isopentenol productivity (E. coli BW25113): 20.4 mg/L/h; % of WT (kcat/Km) ([5]; listed as R74H): 220%
B9 |  |  |  |  |  | product formation from MVAP [6]: do not produce detectible amount of product
